Earlier results in publication PMC7602980 (Biomolecules, 2020).

Target: Cx43CT
Conditions: compared with CaM; no reference printed beside the value; Drebrin–Cx43 interaction ref [78]; read-out: binding affinity Drebrin for Cx43CT, as quoted in discussion
Excerpt: While CaM can be seen as mimicking P ...

B1: Drebrin: developmentally regulated brain protein, linker between Cx43 gap junctions and actin/submembrane cytoskeleton (protein, UniProt Q16643 2-649, looked up)
Drebrin: AGVSFSGHRLELLAAYEEVIREESAADWALYTYEDGSDDLKLAASGEGGLQELSGHFENQKVMYGFCSVKDSQAALPKYVLINWVGEDVPDARKCACASHVAKVAEFFQGVDVIVNASSVEDIDAGAIGQRLSNGLARLSSPVLHRLRLREDENAEPVGTTYQKTDAAVEMKRINREQFWEQAKKEEELRKEEERKKALDERLRFEQERMEQERQEQEERERRYREREQQIEEHRRKQQTLEAEEAKRRLKEQSIFGDHRDEEEETHMKKSESEVEEAAAIIAQRPDNPREFFKQQERVASASAGSCDVPSPFNHRPGSHLDSHRRMAPTPIPTRSPSDSSTASTPVAEQIERALDEVTSSQPPPLPPPPPPAQETQEPSPILDSEETRAAAPQAWAGPMEEPPQAQAPPRGPGSPAEDLMFMESAEQAVLAAPVEPATADATEIHDAADTIETDTATADTTVANNVPPAATSLIDLWPGNGEGASTLQGEPRAPTPPSGTEVTLAEVPLLDEVAPEPLLPAGEGCATLLNFDELPEPPATFCDPEEVEGESLAAPQTPTLPSALEELEQEQEPEPHLLTNGETTQKEGTQASEGYFSQSQEEEFAQSEELCAKAPPPVFYNKPPEIDITCWDADPVPEEEEGFEGGD
For B1, the Kd is given as roughly 300 µM.
